Experimental data published in patent US20190389941A1.
Substitutions are numbered along the chain they refer to.

B1: G1098, P0DOX5 218-449 (Fc fusion)
chain: EPKSCDKTHTCPPCPAPELLGGPSVFLFPPKPKDTLMISRTPEVTCVVVDVSHEDPEVKFNWYVDGVEVHNAKTKPREEQYNSAYRVVSVLTVLHQDWLNGKEYKCKVSNKALPAPIEKTISKAKGQPREPQVYTLPPSREEMTKNQVSLTCLVKGFYPSDIAVEWESNGQPENNYKTTPPVLDSDGSFFLYSKLTVDKSRWQQGNVFSCSVMHGALHNHYTQKYLSLSPGKERKCCVECPPCP
B2: G1126, P0DOX5 218-449 (Fc fusion)
chain: B1 chain with E130R

Target: complement proteins
Test: cell-based or functional assay

Binder | CDC inhibition IC50 (anti-CD20-coated Will-2 cells plus serum) [µg/mL]
B1 | 10
B2 | 5
